Test results reported in publication PMC4192059 (Molecular microbiology, 2014).

Target: T1, PPE41 (M. tuberculosis), chain of the crystallized complex (M. tuberculosis, UniProt Q79FE1 1-194)
T1 sequence: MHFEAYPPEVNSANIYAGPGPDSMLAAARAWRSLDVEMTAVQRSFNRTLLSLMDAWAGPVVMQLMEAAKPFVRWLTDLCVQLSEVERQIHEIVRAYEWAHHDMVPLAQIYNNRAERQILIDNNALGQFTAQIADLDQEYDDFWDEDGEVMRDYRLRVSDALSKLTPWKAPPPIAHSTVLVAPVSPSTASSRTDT
Assay: crystal structure

B1: PE25 (M. tuberculosis), chain of the crystallized complex (natural protein)
chain: MSFVITNPEALTVAATEVRRIRDRAIQSDAQVAPMTTAVRPPAADLVSEKAATFLVEYARKYRQTIAAAAVVLEEFAHALTTGADKYATAEADNIKTFS
Does B1 bind?
Result: binds
